# B1: P2RY14 (parent)
# chain: KKIFKSHLKSSRNSTSVKKKSSRN
# Variants of: B1
# Experiment: protein stability index of a GFP-peptide fusion (GPS, HEK-293T) (PSI 1-6); higher = more stable
# Conditions: c terminus: a fixed tail appended
# 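Also: lentivirally expressed fusions sorted by FACS into six bins by GFP to DsRed ratio, PSI derived from sequencing read proportions per bin multiplied by bin number.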
row,Variant,protein stability index
1,KKIFKSHLKSSRNSTSVKNKSSRN,3.98
2,KKIFKSHLKSSRNSTSVKVKSSRN,4.31
3,KKIFKSHLKSSRNSTSVKEKSSRN,3.98
4,KKIFKSHLKSSRNSTSVKCKSSRN,3.34
5,KKIFKSHLKSSRNSTSVKQKSSRN,4
6,KKIFKSHLKSSRNSTSVKMKSSRN,3.92
7,KKIFKSHLKSSRNSTSVKYKSSRN,3.17
8,KKIFKSHLKSSRNSTSVKSKSSRN,3.9
9,KKIFKSHLKSSRNSTSVKWKSSRN,2.96
10,KKIFKSHLKSSRNSTSVKHKSSRN,3.99
11,KKIFKSHLKSSRNSTSVKGKSSRN,4.02
12,KKIFKSHLKSSRNSTSVKTKSSRN,3.62
13,KKIFKSHLKSSRNSTSVKRKSSRN,4.27
14,KKIFKSHLKSSRNSTSVKFKSSRN,3.13
15,KKIFKSHLKSSRNSTSVKLKSSRN,3.5
16,KKIFKSHLKSSRNSTSVKAKSSRN,3.98
17,KKIFKSHLKSSRNSTSVKPKSSRN,3.34
18,KKIFKSHLKSSRNSTSVKDKSSRN,3.6
19,KKIFKSHLKSSRNSTSVKIKSSRN,3.59
20,KKIFKSHLKSSRNSTSVKKKSSEN,4.18
21,KKIFKSHLKSSRNSTSVKKKSSIN,3.67
22,KKIFKSHLKSSRNSTSVKKKSSDN,4.1
23,KKIFKSHLKSSRNSTSVKKKSSFN,3.42
24,KKIFKSHLKSSRNSTSVKKKSSKN,4.2

row,Variant,protein stability index
1,KKIFKSHLKSSRNSTSVKKKSSHN,3.57
2,KKIFKSHLKSSRNSTSVKKKSSLN,3.51
3,KKIFKSHLKSSRNSTSVKKKSSNN,4.25
4,KKIFKSHLKSSRNSTSVKKKSSMN,3.76
5,KKIFKSHLKSSRNSTSVKKKSSAN,4.05
6,KKIFKSHLKSSRNSTSVKKKSSGN,3.94
7,KKIFKSHLKSSRNSTSVKKKSSPN,3.73
8,KKIFKSHLKSSRNSTSVKKKSSCN,3.91
9,KKIFKSHLKSSRNSTSVKKSSSRN,4.07
10,KKIFKSHLKSSRNSTSVKKQSSRN,4.04
11,KKIFKSHLKSSRNSTSVKKVSSRN,3.81
12,KKIFKSHLKSSRNSTSVKKCSSRN,3.67
13,KKIFKSHLKSSRNSTSVKKMSSRN,3.48
14,KKIFKSHLKSSRNSTSVKKTSSRN,3.62
15,KKIFKSHLKSSRNSTSVKKGSSRN,3.43
16,KKIFKSHLKSSRNSTSVKKASSRN,3.64
17,KKIFKSHLKSSRNSTSVKKYSSRN,3.95
18,KKIFKSHLKSSRNSTSVKKHSSRN,3.62
19,KKIFKSHLKSSRNSTSVKKFSSRN,2.75
20,KKIFKSHLKSSRNSTSVKKLSSRN,3.42
21,KKIFKSHLKSSRNSTSVKKNSSRN,3.86
22,KKIFKSHLKSSRNSTSVKKDSSRN,3.89
23,KKIFKSHLKSSRNSTSVKKWSSRN,3.15
24,KKIFKSHLKSSRNSTSVKKISSRN,3.5

row,Variant,protein stability index
1,KKIFKSHLKSSRNSTSVKKESSRN,3.75
2,KKIFKSHLKSSRNSTSVKKPSSRN,3.83
3,KKIFKSHLKSSRNSTSVKKRSSRN,4.39
4,KKIFKSHLKSSRNSTSVKKKTSRN,3.8
5,KKIFKSHLKSSRNSTSVKKKFSRN,3.73
6,KKIFKSHLKSSRNSTSVKKKMSRN,3.92
7,KKIFKSHLKSSRNSTSVKKKESRN,3.8
8,KKIFKSHLKSSRNSTSVKKKCSRN,3.84
9,KKIFKSHLKSSRNSTSVKKKVSRN,4.14
10,KKIFKSHLKSSRNSTSVKKKLSRN,3.77
11,KKIFKSHLKSSRNSTSVKKKDSRN,4.42
12,KKIFKSHLKSSRNSTSVKKKPSRN,3.72
13,KKIFKSHLKSSRNSTSVKKKKSRN,4.48
14,KKIFKSHLKSSRNSTSVKKKASRN,3.98
15,KKIFKSHLKSSRNSTSVKKKQSRN,3.88
16,KKIFKSHLKSSRNSTSVKKKNSRN,4.17
17,KKIFKSHLKSSRNSTSVKKKRSRN,4.27
18,KKIFKSHLKSSRNSTSVKKKISRN,3.98
19,KKIFKSHLKSSRNSTSVKKKHSRN,4.22
20,KKIFKSHLKSSRNSTSVKKKWSRN,3.3
21,KKIFKSHLKSSRNSTSVKKKYSRN,3.38
22,KKIFKSHLKSSRNSTSVKKKGSRN,3.8
23,KKIFKSHLKSSRNSTSVVKKSSRN,3.74
24,KKIFKSHLKSSRNSTSVSKKSSRN,4.21

row,Variant,protein stability index
1,KKIFKSHLKSSRNSTSVWKKSSRN,2.98
2,KKIFKSHLKSSRNSTSVYKKSSRN,3.66
3,KKIFKSHLKSSRNSTSVTKKSSRN,4.17
4,KKIFKSHLKSSRNSTSVKKKSERN,4.06
5,KKIFKSHLKSSRNSTSVKKKSMRN,4.19
6,KKIFKSHLKSSRNSTSVKKKSWRN,3.33
7,KKIFKSHLKSSRNSTSVKKKSGRN,4.32
8,KKIFKSHLKSSRNSTSVKKKSCRN,4.07
9,KKIFKSHLKSSRNSTSVKKKSKRN,4.43
10,KKIFKSHLKSSRNSTSVKKKSTRN,4.19
11,KKIFKSHLKSSRNSTSVKKKSPRN,4.21
12,KKIFKSHLKSSRNSTSVKKKSARN,4.01
13,KKIFKSHLKSSRNSTSVKKKSYRN,3.56
14,KKIFKSHLKSSRNSTSVKKKSFRN,2.92
15,KKIFKSHLKSSRNSTSVKKKSVRN,4.33
16,KKIFKSHLKSSRNSTSVKKKSIRN,5.05
17,KKIFKSHLKSSRNSTSVKKKSHRN,4.64
18,KKIFKSHLKSSRNSTSVKKKSQRN,4.49
19,KKIFKSHLKSSRNSTSVKKKSRRN,4.13
20,KKIFKSHLKSSRNSTSVKKKSDRN,4
21,KKIFKSHLKSSRNSTSVKKKSNRN,4.2
22,KKIFKSHLKSSRNSTSVKKKSLRN,3.48

# Source: the supplement of paper PMC10567573
